Data set [1] addresses AspT L60C mutant (three endogenous Cys replaced with alanine, then leucine 60 replaced with Cys) (Tetragenococcus halophilus) (UniProt Q8L3K8). In words: cross-linking; spontaneous inter-molecular disulphide; purified protein (0.5 ug) in SDS sample buffer without 2-mercaptoethanol (non-reducing) or with 5% (reducing), 37°C 30 min; SDS-PAGE (Coomassie) and western blot with a His-tag antibody. In general terms: A western blot detects proteins with antibodies after separation by electrophoresis.

Data set [2] concerns the molecule itself. Nature of the data set: SEC-MALS; purified AspT in DDM (2.4 mg/ml, dialysed); Superdex 200 Increase 10/300 GL; 20 mM HEPES-NaOH pH 7.0, 500 mM NaCl, 200 mM Asp-KOH, 0.01% DDM, 20% glycerol; 0.8 ml/min; MALS, RI and UV detectors.

The results in this text go back to paper PMC9527358, “Oligomeric state of the aspartate:alanine transporter from Tetragenococcus halophilus” (Journal of Biochemistry, 2022).

For orientation: stoichiometry N means the number of molecules, sites or subunits per partner or assembly.

Take “AspT L60C mutant (three endogenous Cys replaced with alanine, then leucine 60 replaced with Cys) (from UniProt Q8L3K8 1-543) (natural protein)”: the stoichiometry N in data set [1] is 2.

B1: aspartate:alanine antiporter (AspT) of Tetragenococcus halophilus, wild type, histidine-tagged (natural protein, UniProt Q8L3K8 1-543, looked up)
chain: MNAIGNFLVGTPVFTIFICLALGYLLGKLKIGSFTLGATVGVLIVALLIGQLGVFPRDTLLGDIFFDFFMFAIGYRVGPSFISSMKKFGAKIVYATLIFLVSAFIVAYACFKMFHIGPGIAAGIIAGGLTQSAVIGSSLETISKLPISDHLKTLYSNQIPIVYTLTYVFGTIGVLIFLRDIMPKLMHIDLKKQAVKTAKELDMIPVPVIVASTHFYTINDGSSLIGQTLGTVNTKFAKGLVAAGLNDSADMASVINAGDVLAISGGIDEIGRAVQEFNLLEVTGKTKAYVSKQVVLKKNFSADVLKNAQDKGVLVATLAGDVMDPAQFSTLKPAESVTLVGQKDAVSEVQSQLGRLRAAENIINYSWFALGIALSAALGIVGTKVSGVPIALGGGTASLIVGLVQSIYRDKHAHMDTIPDSLLEFFQSIGLNLFIATVGLSAAKTFISAIQSMGISVLLIGAVISILPHIITFVICYYLMKMEPISIIGAQTGADTLSAALNDVSERVGSDASPFFAAAVAPAYAIGNIFLTLMGPIFIVLLS
notes: aspartate:alanine antiporter AspT, Tetragenococcus halophilus, 543 amino-acid residues (57.2 kDa); expressed from the asp operon in pTrc99A (pTrcAspD/T-His); also called AspT WT; WT; source: Ni Sepharose Excel and SEC for the comparison with L60C; not shown: His6, internal (in loop 5), kept
For B1, the “stoichiometry N” value in data set [2] was determined as 2.
